Tests used:
[1] = target: LolA from Vibrio cholerae (V. cholerae) (UniProt A5F2G9); assay: ITC
[2] = target: LolA from Porphyromonas gingivalis (P. gingivalis); assay: ITC

| Substance | Kd [1] [µM] | Kd [2] [µM] |
| --- | --- | --- |
| polymyxin B (peptide) | 56 |  |
| colistin (peptide) | 91 | 33 |

Source: paper PMC11694511
